Experimental data taken from US11072647B2, “TGF-receptor II isoform, fusion peptide, methods of treatment and methods in vitro” (Onsejo Nacional DE Investigation Cientiticay Tecnica, priority 2013, dated 2021).

Tested on: TβRII receptors (TβRII-A, TβRII-B and TβRII-SE) mRNA in hASCs
Experiment: RT-PCR / qRT-PCR of TβRII isoform mRNA in transduced hASC
Format: cell-based, human
Procedure: To further assess the agonistic role of the TβRII-SE isoform, hASCs were transduced with Lt-TβRII-SE, Lt-TβRIIA-DN, and Lt.eGFP, at an MOI of 150 as described in the examples. Seventy two hours after transduction the percentage of eGFP expressing cells was measured by flow cytometry (FIG. 11A).
mRNA levels of all three isoforms of Type II TGF-β receptor were also quantified by qRT-PCR (FIG. 13).
Total RNA from different primary cultures and cell lines was isolated using the Absolutely RNA kit (Stratagene, La Jolla, Calif., USA). First-strand cDNA was synthesized by mixing 1 μg of DNA free total RNA, 50 pmol primer p(DT)15 (Roche Diagnostics GmbH, Mannheim, Germany), 0.5 mM deoxyribonucleotide triphosphate, 5 mM dithiothreitol, and 1 U Expand Reverse Transcriptase (Roche Diagnostics GmbH). cDNA corresponding to different isoforms of TβRII receptor was detected by PCR amplification in the presence of Expand High Fidelity polymerase (Roche Diagnostics GmbH), 0.2 mM dNTPS, and 0.5 μM of each primer (forward: 5′[…]3′ (SEQ ID No. 10) and reverse: 5′[…]3′ (SEQ ID No. 11) for 35 cycles using the following PCR conditions: 1 min. at 95° C., 1 min. at 55° C., and 1 min. at […]

B1: TβRII-SE: 80 amino acid soluble endogenous isoform of human TGF-β receptor II lacking the transmembrane domain, SEQ ID No. 2 (protein, listed as Homo sapiens)
chain: MGRGLLRGLWPLHIVLWTRIASTIPPHVQKSVNNDMIVTDNNGAVKFPQLCKFCDVRFSTCDNQKSCFSKVHYEGKKKAW
TβRII isoform A expression (RT-PCR, 582 bp band) (transduced hASC): downregulates TβRII isoform A expression | TβRII-A and B variants mRNA levels (qRT-PCR) (transduced hASC vs untransduced): decreased dramatically
